Measurements as given in paper PMC10799895 (Nature Communications, 2024).

Biological target: T1, His-sumo-ATG14 (UniProt Q6ZNE5 1-492)
T1 construct: not shown: 6×His, N-terminal, kept; SUMO, N-terminal, kept
Assay: pull-down; GST pull-down in vitro: GST-tagged protein on GST beads with the His-tagged protein overnight at 4 °C in 20 mM Tris pH 7.4, 300 mM NaCl, 0.1% NP-40, 1 mM PMSF; three washes; western blot
Conditions: both partners purified

T1 sequence (Q6ZNE5 whole entry): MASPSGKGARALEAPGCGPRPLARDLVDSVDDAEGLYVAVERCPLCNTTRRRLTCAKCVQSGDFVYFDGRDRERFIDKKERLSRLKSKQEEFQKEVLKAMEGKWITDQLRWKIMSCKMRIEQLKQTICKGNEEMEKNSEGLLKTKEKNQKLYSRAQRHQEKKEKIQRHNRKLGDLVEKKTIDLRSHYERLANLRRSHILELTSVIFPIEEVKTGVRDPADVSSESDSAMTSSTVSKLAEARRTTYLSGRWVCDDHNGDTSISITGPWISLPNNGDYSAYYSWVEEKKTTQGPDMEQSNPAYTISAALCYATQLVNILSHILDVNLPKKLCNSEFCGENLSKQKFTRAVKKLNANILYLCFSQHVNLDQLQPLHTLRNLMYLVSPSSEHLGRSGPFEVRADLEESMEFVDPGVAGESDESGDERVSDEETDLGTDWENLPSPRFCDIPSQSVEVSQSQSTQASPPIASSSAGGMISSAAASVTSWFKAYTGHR

binding result: binds
B1: GST-GABARAP (natural protein, UniProt O95166 1-117, looked up)
chain: MKFVYKEEHPFEKRRSEGEKIRKKYPDRVPVIVEKAPKARIGDLDKKKYLVPSDLTVGQFYFLIRKRIHLRAEDALFFFVNNVIPPTSATMGQLYQEHHEEDFFLYIAYSDESVYGL
notes: also called GST-ATG8s; not shown: GST, N-terminal, kept
